Test results as given in publication PMC3898896 (Journal of Molecular Biology, 2013).

Target: the molecule itself
Assay: crystal structure

B1: N-terminal dimerization domain of S. pombe Cdc23 (Cdc23^N19-302,Y302A) (domain or fragment, UniProt O94556 19-302, looked up)
chain: QLREIRNCLLKCISECSERGLVYAVRWAAEMLNGMNPIEMEHIPFSSTPTGEFDLDPDMANEKLLEVEEKNIYLLAKSYFDCKEFERAAYTLQNCKSSKSIFLRLYSKYLAGEKKSEEENETLLNTNLTLSSTNREFYYISEVLESLHYQGNKDPYLLYLSGVVYRKRKQDSKAIDFLKSCVLKAPFFWSAWLELSLSIDSLETLTTVVSQLPSTHIMTKIFYVYASHELHQVNSSAYEKLAEAEIIFPNSRYLKTQRALLTYDSRDFDEAESLFENILTNDPA
With B1 the “stoichiometry N” value was 2.
